From patent publication US20240309059A1, “PEPTIDE HAVING ANTI-VIRAL ACTIVITY, ANTI-VIRAL AGENT COMPRISING SAID PEPTIDE, AND METHOD FOR PRODUCING SAID ANTI-VIRAL AGENT” (National University Corporation Tokyo Medical and Dental …, priority 2021, published 2024)

Columns and labels:
Experiment in all cases: cell-based or functional assay
[1] = target: receptor binding domain (RBD) in the SARS-CoV-2 UK variant (B.1.1.7) (SARS-CoV-2 UK variant (B.1.1.7)), P0DTC2
[2] = target: receptor binding domain (RBD) in wild-type SARS-COV-2 (SARS-CoV-2 (wild-type)), P0DTC2
[3] = target: receptor binding domain (RBD) in the SARS-CoV-2 Brazilian variant (P.1) (SARS-CoV-2 Brazilian variant (P.1)), P0DTC2

Binder	IC50 value, plaque reduction assay using the SARS-COV-2 UK variant (B.1.1.7) [1] [nM]	IC50 value, plaque reduction assay using wild-type SARS-COV-2 [2] [nM]	IC50 value, plaque reduction assay using the SARS-COV-2 Brazilian variant (P.1) [3] [nM]
DKLWILQKIYEIMVRLDEEGHGEASLMVSDLIYEFMKRD (modifications not checked) [Ce172]	0.0022	–	–
DKEWILYKIYEIMVRLDEEGHGEASLMVSDLIYEFMKRD (modifications not checked) [Ce149]	0.0021	–	–
DKEWILQKIYEIMRRLDEEGHGEASLRVSDLIYEFMKRD (modifications not checked) [Ce59]	0.2	–	–
DKEWILQKIYEIMRLLDELGHAEASMRVSDLIYEFMKKD (modifications not checked) [Ce1]	–	1.5	–
DKEWILQKIYEIMRRLDEEGHAEASMRVSDLIYEFMKKD (modifications not checked) [Ce9]	13	0.4	1200
DKEWILQKIYEIMRRLDEEGHGEASLRVSDLIYEFMKKD (modifications not checked) [Ce41]	0.68	–	–
